The Human Domainome abundance scans (Beltran et al. 2025)
± gives the uncertainty stated by the source.

B1: Protein S100-G, residues 1 to 79; numbered along this chain, P02633 (parent)
chain: MSAKKSPEELKGIFEKYAAKEGDPNQLSKEELKLLLQTEFPSLLKGPSTLDELFEELDKNGDGEVSFEEFQVLVKKISQ

Variants of: B1
Test: abundance fitness (aPCA) (normalised: wild type 0, dead -1); higher = more abundant; growth selection in yeast, the domain comes from the species named
Conditions: Bos taurus

Q: For MSAKKSPEELKGIFEKYAAKEGDPNQLSKEELKLLLQTEFPSLLKGPSTLDELFEELDKNGDGEVSDEEFQVLVKKISQ, which abundance fitness is on record?
A: -0.294 ± 0.084

Q: With MSAKKSPEELKGIFEKYAAKEGDPNQLSKEELKLLLQTEFPSLLKGPSTLDELFEELDKNGDGEVSAEEFQVLVKKISQ as the variant, how does the abundance fitness read?
A: -0.123 ± 0.067

Q: With MSAKKSPEELKGIFEKYAAKEGDPNQLSKEELKLLLQTEFPSLLKGPSTLDELFEELDKNGDGEVSCEEFQVLVKKISQ as the variant, how does the abundance fitness read?
A: -0.05 ± 0.079

Q: Which abundance fitness does the source give for MSAKKSPEELKGIFEKYAAKEGDPNQLSKEELKLLLQTEFPSLLKGPSTLDELFEELDKNGDGEVRFEEFQVLVKKISQ here?
A: -0.036 ± 0.063

Q: With MSAKKSPEELKGIFEKYAAKEGDPNQLSKEELKLLLQTEFPSLLKGPSTLDELFEELDKNGDGEVPFEEFQVLVKKISQ as the variant, how does the abundance fitness read?
A: -0.107 ± 0.074

Q: Which abundance fitness does the source give for MSAKKSPEELKGIFEKYAAKEGDPNQLSKEELKLLLQTEFPSLLKGPSTLDELFEELDKNGDGEVAFEEFQVLVKKISQ here?
A: -0.009 ± 0.065

Q: For MSAKKSPEELKGIFEKYAAKEGDPNQLSKEELKLLLQTEFPSLLKGPSTLDELFEELDKNGDGEVQFEEFQVLVKKISQ, which abundance fitness is on record?
A: -0.101 ± 0.083

Q: For MSAKKSPEELKGIFEKYAAKEGDPNQLSKEELKLLLQTEFPSLLKGPSTLDELFEELDKNGDGEVLFEEFQVLVKKISQ, which abundance fitness is on record?
A: -0.137 ± 0.064

Q: Which abundance fitness does the source give for MSAKKSPEELKGIFEKYAAKEGDPNQLSKEELKLLLQTEFPSLLKGPSTLDELFEELDKNGDGEVNFEEFQVLVKKISQ here?
A: 0.014 ± 0.078

Q: With MSAKKSPEELKGIFEKYAAKEGDPNQLSKEELKLLLQTEFPSLLKGPSTLDELFEELDKNGDGEVEFEEFQVLVKKISQ as the variant, how does the abundance fitness read?
A: 0.048 ± 0.083

Q: Which abundance fitness does the source give for MSAKKSPEELKGIFEKYAAKEGDPNQLSKEELKLLLQTEFPSLLKGPSTLDELFEELDKNGDGEVTFEEFQVLVKKISQ here?
A: 0.029 ± 0.07

Q: Which abundance fitness does the source give for MSAKKSPEELKGIFEKYAAKEGDPNQLSKEELKLLLQTEFPSLLKGPSTLDELFEELDKNGDGEVMFEEFQVLVKKISQ here?
A: 0.008 ± 0.085

Q: For MSAKKSPEELKGIFEKYAAKEGDPNQLSKEELKLLLQTEFPSLLKGPSTLDELFEELDKNGDGEVCFEEFQVLVKKISQ, which abundance fitness is on record?
A: 0.053 ± 0.086

Q: With MSAKKSPEELKGIFEKYAAKEGDPNQLSKEELKLLLQTEFPSLLKGPSTLDELFEELDKNGDGEVHFEEFQVLVKKISQ as the variant, how does the abundance fitness read?
A: -0.146 ± 0.083

Q: Which abundance fitness does the source give for MSAKKSPEELKGIFEKYAAKEGDPNQLSKEELKLLLQTEFPSLLKGPSTLDELFEELDKNGDGEVGFEEFQVLVKKISQ here?
A: 0.033 ± 0.068

Q: With MSAKKSPEELKGIFEKYAAKEGDPNQLSKEELKLLLQTEFPSLLKGPSTLDELFEELDKNGDGEVYFEEFQVLVKKISQ as the variant, how does the abundance fitness read?
A: -0.086 ± 0.079

Q: For MSAKKSPEELKGIFEKYAAKEGDPNQLSKEELKLLLQTEFPSLLKGPSTLDELFEELDKNGDGEVKFEEFQVLVKKISQ, which abundance fitness is on record?
A: -0.066 ± 0.077

Q: For MSAKKSPEELKGIFEKYAAKEGDPNQLSKEELKLLLQTEFPSLLKGPSTLDELFEELDKNGDGEVIFEEFQVLVKKISQ, which abundance fitness is on record?
A: -0.101 ± 0.088

Q: Which abundance fitness does the source give for MSAKKSPEELKGIFEKYAAKEGDPNQLSKEELKLLLQTEFPSLLKGPSTLDELFEELDKNGDGEVVFEEFQVLVKKISQ here?
A: 0 ± 0.067

Q: Which abundance fitness does the source give for MSAKKSPEELKGIFEKYAAKEGDPNQLSKEELKLLLQTEFPSLLKGPSTLDELFEELDKNGDGEVWFEEFQVLVKKISQ here?
A: -0.382 ± 0.088

Q: Which abundance fitness does the source give for MSAKKSPEELKGIFEKYAAKEGDPNQLSKEELKLLLQTEFPSLLKGPSTLDELFEELDKNGDGEVFFEEFQVLVKKISQ here?
A: -0.124 ± 0.084

Q: With MSAKKSPEELKGIFEKYAAKEGDPNQLSKEELKLLLQTEFPSLLKGPSTLDELFEELDKNGDGETSFEEFQVLVKKISQ as the variant, how does the abundance fitness read?
A: 0.037 ± 0.067

Q: With MSAKKSPEELKGIFEKYAAKEGDPNQLSKEELKLLLQTEFPSLLKGPSTLDELFEELDKNGDGELSFEEFQVLVKKISQ as the variant, how does the abundance fitness read?
A: 0.044 ± 0.059

Q: With MSAKKSPEELKGIFEKYAAKEGDPNQLSKEELKLLLQTEFPSLLKGPSTLDELFEELDKNGDGEGSFEEFQVLVKKISQ as the variant, how does the abundance fitness read?
A: -0.37 ± 0.071

Q: With MSAKKSPEELKGIFEKYAAKEGDPNQLSKEELKLLLQTEFPSLLKGPSTLDELFEELDKNGDGEQSFEEFQVLVKKISQ as the variant, how does the abundance fitness read?
A: -0.165 ± 0.077

Q: Which abundance fitness does the source give for MSAKKSPEELKGIFEKYAAKEGDPNQLSKEELKLLLQTEFPSLLKGPSTLDELFEELDKNGDGEDSFEEFQVLVKKISQ here?
A: -0.86 ± 0.11

Q: With MSAKKSPEELKGIFEKYAAKEGDPNQLSKEELKLLLQTEFPSLLKGPSTLDELFEELDKNGDGEISFEEFQVLVKKISQ as the variant, how does the abundance fitness read?
A: 0.007 ± 0.088

Q: Which abundance fitness does the source give for MSAKKSPEELKGIFEKYAAKEGDPNQLSKEELKLLLQTEFPSLLKGPSTLDELFEELDKNGDGEPSFEEFQVLVKKISQ here?
A: -0.34 ± 0.073

Q: For MSAKKSPEELKGIFEKYAAKEGDPNQLSKEELKLLLQTEFPSLLKGPSTLDELFEELDKNGDGESSFEEFQVLVKKISQ, which abundance fitness is on record?
A: -0.109 ± 0.061

Q: Which abundance fitness does the source give for MSAKKSPEELKGIFEKYAAKEGDPNQLSKEELKLLLQTEFPSLLKGPSTLDELFEELDKNGDGENSFEEFQVLVKKISQ here?
A: -0.2 ± 0.094

Q: Which abundance fitness does the source give for MSAKKSPEELKGIFEKYAAKEGDPNQLSKEELKLLLQTEFPSLLKGPSTLDELFEELDKNGDGEWSFEEFQVLVKKISQ here?
A: -0.018 ± 0.074

Q: With MSAKKSPEELKGIFEKYAAKEGDPNQLSKEELKLLLQTEFPSLLKGPSTLDELFEELDKNGDGEMSFEEFQVLVKKISQ as the variant, how does the abundance fitness read?
A: 0.025 ± 0.078

Q: Which abundance fitness does the source give for MSAKKSPEELKGIFEKYAAKEGDPNQLSKEELKLLLQTEFPSLLKGPSTLDELFEELDKNGDGEFSFEEFQVLVKKISQ here?
A: -0.002 ± 0.083

Q: Which abundance fitness does the source give for MSAKKSPEELKGIFEKYAAKEGDPNQLSKEELKLLLQTEFPSLLKGPSTLDELFEELDKNGDGEKSFEEFQVLVKKISQ here?
A: -0.171 ± 0.081

Q: Which abundance fitness does the source give for MSAKKSPEELKGIFEKYAAKEGDPNQLSKEELKLLLQTEFPSLLKGPSTLDELFEELDKNGDGERSFEEFQVLVKKISQ here?
A: -0.165 ± 0.064
